Experimental data: the DeepSol protein solubility set

Assay: soluble on expression in E. coli; label from the status in PepcDB or PDB records

Sequence	soluble on expression in E. coli
QEPFHVVTPLLESWALSQVAGMPVFLKCENVQPSGSFKIRGIGHFCQEMAKKGCRHLVCSSGGNAGIAAAYAARKLGIPATIVLPESTSLQVVQRLQGEGAEVQLTGKVWDEANLRAQELAKRDGWENVPPFDHPLIWKGHASLVQELKAVLRTPPGALVLAVGGGGLLAGVVAGLLEVGWQHVPIIAMETHGAHCFNAAITAGKLVTLPDITSVAKSLGAKTVAARALECMQVCKIHSEVVEDTEAVSAVQQLLDDERMLVEPACGAALAAIYSGLLRRLQAEGCLPPSLTSVVVIVCGGNNINSRELQALKTHLGQ	soluble
MAHHHHHHMEAAAERCFQEGDLKGAACLYANLMVLYPQYTKMARMCRVLSNPLDVPLPYRYADVVEALLDPCVTYQTLFGTDAPPSVVRKAFQGWTLLVHPDKNPYPKAADAFNRLVAFKAAAMGTVDEGPPNAGGVNSKSSCRGNVRNRQRCTKRHGSANRANQSNQHSQLGDEIDMSLYELKKVQVTLKSLKRKNVDDSELPPLSAFLRPGGGARSRGGVDHSNNTKGSVPTPETQEGGSASLDESIPTSPRSCTADTACEPGLSQTIEAQLRSSEGATDAPYVLSELTPQQNEVVRGGKGLEGENTEEPLGLPTAGGHMQQYATNRNVGEVDNGSRVSLEADDSVQGPAKGIQNPDALPRRRGKHVDRLEGTCTGEFTQQSNQNSTCDTSSSEGLHSTTFNEDVPLVELAKLGIRELFDGIQKKINRDPIRLNCDLSFATYTRDKQKEVNEASVQSNDET	not soluble
MRNTKIRAVQYGCGKMSKVILNYLVDHGVEIVGAIDKNPAVVGQDIGDFAGFGHKTGIIISDKADQVFDNCDADIAIVTIFSYMPEMYEFYEMAIKHGVNVISTCEEAIYPWTTSPSETNRLDKLAKENHVTIMGSGMQDIYWINMPCLAMAGMNKIKKVRGVVSYNVEDYGLALAEAHGAGYDLERFERDIASAESLPSYMWNAAEAICSKMNWTIQSINQKSVPYILDEDVYSETLGRTIPAGQVTGMSAVTKVQTHQGIDLEVECIGKVYRQDDGDMCDWEITGEPDLIFSVNKPDTVALTCGTIVNRIPTVLDAPAGYITSEKARLITYPSYPLHTYVEK	not soluble
MPVAHVALPVPLPRTFDYLLPEGMTVKAGCRVRVPFGKQQERIGIVVSVSDASELPLNELKAVVEVLDSEPVFTHSVWRLLLWAADYYHHPIGDVLFHALPILLRQGRPAANAPMWYWFATEQGQAVDLNSLKRSPKQQQALAALRQGKIWRDQVATLEFNDAALQALRKKGLCDLASETPEFSDWRTNYAVSGERLRLNTEQATAVGAIHSAADTFSAWLLAGVTGSGKTEVYLSVLENVLAQGKQALVMVPEIGLTPQTIARFRERFNAPVEVLHSGLNDSERLSAWLKAKNGEAAIVIGTRSALFTPFKNLGVIVIDEEHDSSYKQQEGWRYHARDLAVYRAHSEQIPIILGSATPALETLCNVQQKKYRLLRLTRRAGNARPAIQHVLDLKGQKVQAGLAPALITRMRQHLQADNQVILFLNRRGFAPALLCHDCGWIAECPRCDHYYTLHQAQHHLRCHHCDSQRPVPRQCPSCGSTHLVPVGLGTEQLEQTLAPLFPGVPISRIDRDTTSRKGALEQQLAEVHRGGARILIGTQMLAKGHHFPDVTLVALLDVDGALFSADFRSAERFAQLYTQVAGRAGRAGKQGEVVLQTHHPEHPLLQTLLYKGYDAFAEQALAERRMMQLPPWTSHVIVRAEDHNNQHAPLFLQQLRNLILSSPLADEKLWVLGPVPALAPKRGGRWRWQILLQHPSRVRLQHIINGTLALINTIPDSRKVKWVLDVDPIEG	soluble
DIVMTQSPLSLPVTPGEPASISCRSSQSIVHSNGHTYLEWYLQKPGQSPRLLIYQVSTRFSGVPDRFSGSGSGTDFTLKISRVEAEDVGVYYCFQASLVPLTFGQGTKLEIKRTVAAPSVFIFPPSDEQLKSGTASVVCLLNNFYPREAKVQWKVDNALQSGNSQESVTEQDSKDSTYSLSSTLTLSKADYEKHKVYACEVTHQGLSSPVTKSFNRGECAAADYKDDDD	soluble
MGSDKIHHHHHHMFLQPLLAKKIIAEVKKMYEREVIIVNTDGLIMAGTNDERVGQFHEGALICAKERRSVIITKEDETRLKGVKAGINLPVFFDHDVISVFGLTGEPAEIQPFGELLRKMTELFIKESRHLEQSQWRERMLESFMIDWLQLKEWSPSFLEKAQLLGVDLSSRRQMILIQGYEWSPHDIEQMARSWKSSYPADLFIRWGNERILINHEVPQHEQRDRLLRKILHICSFANTASSQYTAAGAGRAVASSSLTDSYEQAEKALAVSLKRKTPIFEEDLKLDMCLTEISPGTRNEFPQRVLGKALEHQELMNTIRTFFHHDLSLKQTAEDMHIHINTLRYRLAKAEQLTGLRFDRTEDVVTMYVALYFLDQDTK	not soluble
